In article PMC11211324 (Cell Discovery, 2024):
Numbering of substitutions follows the chain as printed.

B1: 3 (VHH)
VHH: DVQLQESGGGLVQPGGSLRLNCAASGFVFSDYAMSWVRQAPGKGLEWVSAIYGGGYNPIYTDSVKGRFTISRDNAKNTLYLQIRTLKPEDTGVYYCAKEQTFGTFLNDTYYSPSYYDWGQGTQVTVSS
B2: 5 (VHH)
VHH: B1 VHH with T61A
B3: 4 (VHH)
VHH: DVQLQESGGGLVQPGGSLRLSCAASGFTFGNTGMSWVRQAPGKGLEWVSGISSGGAFSFYADSVKGRFTGSDNSAKNTVYLQMNSLQPEDTGVYYCAAGPRVALLTTPWTNPQSYHYWGQGTQVTVSS
B4: 6 (VHH)
VHH: DVQLQESGGGLVEPGGSLRLSCAASGSIFGLDVMGWYRQAPGKQRELVAIITRGGTANYADSGKGRFTISSDYAKKTVSLQMGSLIPEDTAVYYCSALVLGTNYWGQGTQVTVSS
B5: 2 (VHH)
VHH: DVQLQESGGGLVQAGGSLRLSCVAPARTVSTYPTGWFRRAPGKEREFVARINFSGGITNYADSVKGRFTISRNNTKNTVYLQMNSLKPEDTAVYYCGGGSTTWADGIPINFDYWGQGTQVTVSS
B6: tumor-targeting KRAS degrader (TKD) (VHH)
VHH: B5 VHH with P25S, A26G, V29F, R39Q, F53L, N73D, T75A, D105G, I109T
notes: cancer cell-penetrating peptide BR2 (derived from buforin IIb); KRAS nanobody from an alpaca immunised with KRAS (1-169 aa); Fusion of BR2, KRAS nanobody and CTM; also called KDC 1; KRAS degrader candidate 1; source: for co-IP the purified protein was added to living cells
B7: TKDm (negative control of TKD with mutant CTM peptide) (VHH)
VHH: B5 VHH with P25S, A26G, V29F, R39Q, F53L, N73D, T75A, D105G, I109T
notes: cancer cell-penetrating peptide BR2 (derived from buforin IIb); KRAS nanobody, same as in TKD; also called TKDm-His; source: for co-IP the purified protein was added to living cells

How the values were obtained:
purified KRAS [1] = target: T1, purified KRAS (Homo sapiens (assumed), isoform 2B …, UniProt P01116-2, biotin (chemically labelled with EZ-link-Sulfo-NHS-biotin) in the BLI assay only)
purified KRAS [2] = target: T1, purified KRAS; assay: BLI; biotinylated KRAS immobilised on streptavidin biosensors, KDCs (TKD, TKDm) in solution in a 2-fold dilution series; Octet Red96, 30 °C, PBST (1x PBS, 0.1% Tween 20); 100 s association, 200 s dissociation; 1:1 model, global fit; conditions: both partners purified
purified NRAS = target: T2, purified NRAS (Homo sapiens (assumed), UniProt P01111); assay: BLI; TKD with purified HRAS or NRAS; Octet Red96, 30 °C, PBST; which partner was on the biosensor is not clearly told; conditions: both partners purified
T2 construct: NRAS, purified, bought; Catalogue numbers are printed in the order HRAS/NRAS; source: bought: MedChemExpress

purified HRAS = target: T3, purified HRAS (Homo sapiens (assumed), UniProt P01112); assay: as above; conditions: both partners purified
T3 construct: HRAS, purified, bought; Catalogue numbers are printed in the order HRAS/NRAS; source: bought: MedChemExpress
T3 sequence (P01112 whole entry): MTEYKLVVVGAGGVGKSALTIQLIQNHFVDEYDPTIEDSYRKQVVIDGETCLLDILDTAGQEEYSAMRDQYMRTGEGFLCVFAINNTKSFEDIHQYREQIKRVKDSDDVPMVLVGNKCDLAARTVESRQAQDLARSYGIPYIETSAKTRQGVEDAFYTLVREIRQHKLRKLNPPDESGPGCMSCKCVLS

T1 sequence (P01116 whole entry, canonical isoform): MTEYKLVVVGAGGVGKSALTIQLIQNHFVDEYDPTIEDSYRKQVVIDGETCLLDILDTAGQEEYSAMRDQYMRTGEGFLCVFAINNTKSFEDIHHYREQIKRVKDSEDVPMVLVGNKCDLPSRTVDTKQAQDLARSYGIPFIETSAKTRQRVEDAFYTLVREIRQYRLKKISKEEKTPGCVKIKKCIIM
T2 sequence (P01111 whole entry): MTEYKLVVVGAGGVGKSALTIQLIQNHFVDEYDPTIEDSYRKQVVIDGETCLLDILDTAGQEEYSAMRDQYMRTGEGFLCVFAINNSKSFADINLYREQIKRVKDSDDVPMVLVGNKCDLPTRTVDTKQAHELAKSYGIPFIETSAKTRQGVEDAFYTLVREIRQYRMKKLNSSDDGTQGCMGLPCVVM

Row | Binder | binding result (purified KRAS [1]) | further results
1 | B1 | binds | –
2 | B2 | binds | –
3 | B3 | binds | –
4 | B4 | binds | –
5 | B5 | binds | –
6 | B6 | – | Kd (purified KRAS [2]): 6.57 nM; binding result (purified NRAS): no binding; binding result (purified HRAS): no binding
7 | B7 | – | Kd (purified KRAS [2]): 6.6 nM
